Laboratory results: patent US20230348571A1 (VANDERBILT UNIVERSITY, published 2023)

B1: 46472-4 (antibody, V domains shown)
VH: EVPLLESGGGLVQPGGSLRLSCVASGFPFSSFALSWVRQAPGKGLEWVSTINTNGGTTYYLDSVKGRFTVSRDNSKNTLFLQMSSLRAEDTAIYYCAKDLLSHSGTYSAGSTFDYWGQGTLVIVSS
VL: DIQMTQSPSSLSASVGDRVTITCRASQSIGVYLNWYQQKPGKAPKLLIHATSNLQSGVPSRFSCSGSGTEFTLTISSLQPEDFATYYCQESYSTNTFGQGTKLEIK
B2: 46472-3 (antibody, V domains shown)
VH: QVQLVESGGGVVQPGRSLRLSCAASGFTFSVYPMHWVRQAPGRGLEWVAVISYDGSNQYYADSVRGRFTISRDNSKNTLYLHMNSLRPEDTAVFYCARDRSATYYGPFDYWGQGTLVTVSS
VL: SSELTQDPAVSVALGQTVRITCQGDSLRSYSASWYQQKPSQAPVLVIYANNNRPSGIPDRFSGSNSGNTASLTITGAQAEDEADYYCNSRDNSGNHPVIFGGGTTLTVL
B3: 46472-12 (antibody, V domains shown)
VH: QVQLVQSGAEVQKPGASVKVSCKASGYRFDIFDINWVRQASGQGPEWMGWMNPNSGNTGYAHKFQGRVTMTRDSSTNTAYMELSSLTFEDTAVYYCARDRVERTGNVGFGYYAMDVWGQGTTVIVSS
VL: DIQMTQSPSSLSASVGDRVTITCRASQSITNYLNWYQQRPGKAPRLLIYAASSLQSGVPSRFSGSGSGTDFTLTISSLQPEDFGTFYCQQTYSSPSYTFGQGTKLEMK
B4: 46472-2 (antibody, V domains shown)
VH: EVQLVQSGAEVKKPGESLRISCKGSGYRFITYWISWVRQMPGRGLEWMGKIDPSDSSTNYSPSFQGHVAISVDKSFNTAYLQWSRLNTSDTAMYYCAAGPTGYDLLTGQYFPYFNYWAQGTLVTVSS
VL: NFMLTQPHSVSESPGKTVSISCTRSSGSIASKFMQWYQQRPGSAPTILIYEDNLRPSGVPDRFSGSIDTSSNSALLTISGLKTEDEADYYCQSYHGSDVVFGGGTKLTVL
B5: 46472-6 (antibody, V domains shown)
VH: QLQLQESGPGLVKPSETLFLFCSVSGGSISISTHYWEWIRQPPGKGLEWIGSFYSSGTTYYNPSLKGRVTISADTSKSQISLKMSSVTAADTAVYYCARRPQYLLLSMTTGRRHHDFVMDVWGQGTTVTVSS
VL: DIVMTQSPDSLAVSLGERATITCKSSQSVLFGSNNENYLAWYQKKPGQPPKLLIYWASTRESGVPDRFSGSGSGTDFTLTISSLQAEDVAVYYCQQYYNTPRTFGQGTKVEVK
B6: 46472-1 (antibody, V domains shown)
VH: QVQLVQSGAEVKKDGSSVKVSCEASGGTFSDYAISWVRQAPGQGLEWMGRIIPILGITNYAQQFQTRVTITADKSTSAVYMELSSLRSKDTAIYYCAREVNYYSAFDDWGQGTQVTVSS
VL: EIVMTQSPDTLSVSPGERATLSCRASQNVSSNLAWYQQKPGQAPRLLIYDASTRATGIPARFSGSGSGTEFTLAISSLQSEDFAVYYCQQYNFWWTFGQGTKVDIK

Legend:
SS-B/La = biological target: T1, SS-B/La (UniProt P05455 1-408); assay: Luminex AtheNA Multi-Lyte ANA-II Plus bead assay
T1 construct: Kit antigen
T1 sequence: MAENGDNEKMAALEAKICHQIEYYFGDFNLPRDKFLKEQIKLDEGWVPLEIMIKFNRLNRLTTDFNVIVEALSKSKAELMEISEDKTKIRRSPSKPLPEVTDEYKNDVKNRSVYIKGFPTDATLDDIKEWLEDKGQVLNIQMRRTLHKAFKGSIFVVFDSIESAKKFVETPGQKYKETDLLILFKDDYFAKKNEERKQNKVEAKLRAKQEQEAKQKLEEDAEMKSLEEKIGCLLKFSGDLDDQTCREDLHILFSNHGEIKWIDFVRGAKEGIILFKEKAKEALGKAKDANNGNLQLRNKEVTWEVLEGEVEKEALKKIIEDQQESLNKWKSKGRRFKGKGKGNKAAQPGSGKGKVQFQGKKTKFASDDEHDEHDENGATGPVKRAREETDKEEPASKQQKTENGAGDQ

Jo-1 = biological target: T2, Jo-1 (UniProt P12081 2-509); assay: Luminex AtheNA Multi-Lyte ANA-II Plus bead assay
T2 construct: Kit antigen
T2 sequence: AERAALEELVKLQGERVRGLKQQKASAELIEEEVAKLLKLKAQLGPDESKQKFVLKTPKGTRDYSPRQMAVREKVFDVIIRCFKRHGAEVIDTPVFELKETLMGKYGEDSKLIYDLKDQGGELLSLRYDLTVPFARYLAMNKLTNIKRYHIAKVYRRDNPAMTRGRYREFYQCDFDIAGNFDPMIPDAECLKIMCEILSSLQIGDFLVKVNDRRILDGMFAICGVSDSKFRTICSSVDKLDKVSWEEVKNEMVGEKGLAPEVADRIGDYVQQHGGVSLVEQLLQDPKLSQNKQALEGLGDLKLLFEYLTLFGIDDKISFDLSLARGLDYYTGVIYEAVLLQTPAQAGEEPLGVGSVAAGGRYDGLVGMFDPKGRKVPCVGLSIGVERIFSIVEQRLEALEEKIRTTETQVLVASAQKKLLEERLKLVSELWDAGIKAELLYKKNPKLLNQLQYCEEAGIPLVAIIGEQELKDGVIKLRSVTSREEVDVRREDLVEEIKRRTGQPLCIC

Scl 70 = biological target: T3, Scl 70 (UniProt P11387 2-765); assay: Luminex AtheNA Multi-Lyte ANA-II Plus bead assay
T3 construct: Kit antigen
T3 sequence: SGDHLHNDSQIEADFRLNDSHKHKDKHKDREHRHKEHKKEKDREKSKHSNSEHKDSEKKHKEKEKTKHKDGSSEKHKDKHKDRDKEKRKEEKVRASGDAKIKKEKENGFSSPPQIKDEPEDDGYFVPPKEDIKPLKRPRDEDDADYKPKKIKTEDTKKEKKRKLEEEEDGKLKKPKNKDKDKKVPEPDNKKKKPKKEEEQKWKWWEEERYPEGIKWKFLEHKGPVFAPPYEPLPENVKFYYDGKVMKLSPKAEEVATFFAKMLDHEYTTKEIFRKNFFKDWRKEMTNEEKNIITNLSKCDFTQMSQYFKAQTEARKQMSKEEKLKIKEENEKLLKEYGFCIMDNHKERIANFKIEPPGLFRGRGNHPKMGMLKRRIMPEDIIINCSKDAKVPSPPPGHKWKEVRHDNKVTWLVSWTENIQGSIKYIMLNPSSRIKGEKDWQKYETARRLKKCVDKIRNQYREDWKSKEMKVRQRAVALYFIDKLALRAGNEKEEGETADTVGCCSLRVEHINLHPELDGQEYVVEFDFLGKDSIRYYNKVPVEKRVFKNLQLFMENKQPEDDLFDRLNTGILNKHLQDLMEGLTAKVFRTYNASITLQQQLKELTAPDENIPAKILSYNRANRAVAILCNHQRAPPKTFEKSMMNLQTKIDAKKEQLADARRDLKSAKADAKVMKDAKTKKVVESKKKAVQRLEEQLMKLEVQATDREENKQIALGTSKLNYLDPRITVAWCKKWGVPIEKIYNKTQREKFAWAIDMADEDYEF

centromere B = biological target: T4, centromere B (UniProt P07199 2-599); assay: Luminex AtheNA Multi-Lyte ANA-II Plus bead assay
T4 construct: Kit antigen
T4 sequence: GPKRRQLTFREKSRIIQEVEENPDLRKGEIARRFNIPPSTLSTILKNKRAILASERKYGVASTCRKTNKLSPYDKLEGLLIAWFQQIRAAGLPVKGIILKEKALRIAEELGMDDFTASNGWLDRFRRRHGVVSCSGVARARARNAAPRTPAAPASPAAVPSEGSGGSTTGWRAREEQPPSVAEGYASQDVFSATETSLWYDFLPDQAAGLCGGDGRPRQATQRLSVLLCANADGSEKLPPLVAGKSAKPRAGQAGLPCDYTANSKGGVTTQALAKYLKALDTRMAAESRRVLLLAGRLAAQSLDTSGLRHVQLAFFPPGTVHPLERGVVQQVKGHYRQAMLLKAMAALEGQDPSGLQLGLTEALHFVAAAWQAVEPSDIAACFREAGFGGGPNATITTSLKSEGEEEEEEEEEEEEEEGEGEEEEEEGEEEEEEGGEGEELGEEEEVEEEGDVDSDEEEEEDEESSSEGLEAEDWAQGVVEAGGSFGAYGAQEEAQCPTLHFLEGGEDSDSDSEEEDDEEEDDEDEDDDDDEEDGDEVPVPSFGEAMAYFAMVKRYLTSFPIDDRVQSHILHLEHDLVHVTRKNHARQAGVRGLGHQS

SARS-CoV-2 S2 domain = biological target: T5, SARS-CoV-2 S2 domain (SARS-CoV-2, UniProt P0DTC2 686-1213); assay: ELISA on SARS-CoV-2 subdomain proteins (FIG. 15A, FIG. 19A)
T5 construct: domain: S2; also called the S2 domain

SARS-CoV-2 S1 domain = biological target: T6, SARS-CoV-2 S1 domain (SARS-CoV-2, UniProt P0DTC2 16-685); assay: as above
T6 construct: domain: S1; also called the S1 domain

SARS-CoV-2 NTD = biological target: T7, SARS-CoV-2 NTD (SARS-CoV-2, UniProt P0DTC2 16-305); assay: ELISA on RBD and NTD proteins (FIG. 15B, FIG. 19B)
T7 construct: domain: NTD; also called the NTD; N-terminal domain

Binder	binding result (SS-B/La)	binding result (Jo-1)	binding result (Scl 70)	binding result (centromere B)	binding result (SARS-CoV-2 S2 domain)	binding result (SARS-CoV-2 S1 domain)	binding result (SARS-CoV-2 NTD)
B1	no binding	no binding	no binding	no binding	binds		
B2	no binding	no binding	no binding	no binding	binds		
B3	no binding	no binding	no binding	no binding		binds	
B4	no binding	no binding	no binding	no binding	binds		
B5	no binding		no binding	no binding		binds	binds
B6	no binding	no binding	no binding	no binding	binds		
